Several values for one entry are separate records, joined by “and”; a condition that tells them apart may be missing. Equal values may be shown once.
How the values were obtained:
[1] = Competitive binding of FITC-Avidin and unlabeled Avidin in cartilage (binding isotherm fit); parameters: species or system bovine; conditions: best fit of binding isotherm to FIG. 13 data
Description: To test this hypothesis, competitive binding experiments were performed in which 3 mm diameter cartilage disks were equilibrated for 3 days in 300 μl buffer containing a fixed amount of (fluorescently labeled) FITC-Avidin (1 μM) and graded amounts of unlabeled Avidin (0, 10, 76, 100, and 203 μM). The disks were split into half disks to reduce the time needed for equilibration, which was performed in 96 well plates at 37° C. The uptake ratio, RU, was measured and plotted versus the total bath concentration of Avidin (labeled+unlabeled, FIG. 13), where RU is defined as the total concentration of Avidin inside the cartilage (bound (CB) plus free (CF)) per intra-tissue water weight, normalized to the Avidin concentration in the equilibration bath (CBath):
Labeled and unlabeled Avidin were held to partition into the cartilage identically. At very low concentration of the labeled Avidin (≦1 μM), a high uptake of ˜120 was observed. When unlabeled Avidin was added to the bath, both species (labeled and unlabeled) could compete for the same (constant) number of binding sites available in the tissue (site density NT). […] To model the data of FIG. 13, a first-order, bimolecular, reversible reaction was produced to describe binding of Avidin to a single dominant binding species within cartilage. A theoretical model was adopted, (Garcia et al., Arch Biochem Biophys, 2003) previously used for characterizing the binding of soluble insulin like growth factor-1 (IGF-1) to IGF-binding proteins (IGF-BPs) that are uniformly enmeshed and fixed within cartilage matrix. According to this model, the equilibrium molar concentration of free solute (CF), bound solute (CB), intra-tissue binding site density (NT) and the equilibrium dissociation constant (KEQ) are related by the binding isotherm:
[formula] which is similar in form to a Langmuir adsorption isotherm. […]
[formula] […] Thus, K is determined by both steric hindrance and electrostatic (Donnan) interactions. […]

[2] = dilute solution of DI water at pH 5; cited from earlier work
[3] = Equilibrium uptake and desorption of Avidin and NeutrAvidin in cartilage disks; assay type: in vitro ADME, bovine; conditions: for mean uptake ratio: 24 h
Text: Cartilage disks were harvested from the femoropatellar grooves of 1-2 week old bovine calf knee joints (obtained from Research 87, Hopkinton, Mass.) as described previously (Patwari et al., Arthritis Rheum, 2003). Briefly, cylindrical cartilage disks (3 mm or 6 mm diameter) were cored using a dermal punch and then sliced to obtain the top 1 mm of cartilage with intact superficial zone. Cartilage disks for all treatment groups were matched for depth and location along the joint surface. The disks were then pre-equilibrated in PBS (without Ca^2±/Mg^2±) supplemented with protease inhibitors (Complete Protease Cocktail tablet in 50 mL PBS, Roche Applied Science, IN) in a 37° C., 5% CO2 incubator for 24-48 h.
Equilibrium uptake of Avidin and NeutrAvidin: 3 mm diameter, 1 mm thick cartilage explants were incubated for specific times in 300 μl of known concentration (3 μM) of FITC-Avidin and FITC-NeutrAvidin, supplemented with protease inhibitors at 37° C. in a 96 well plate format. After removal from the absorption baths, the disks were rinsed, gently wiped and then incubated in 1× or 10×PBS supplemented with protease inhibitors for 24 h or longer as specified. At the end of the experiment, the surfaces of each disk were quickly blotted with Kimwipes and the wet weight was measured. The disks were then lyophilized and the dry weight was measured; the water weight was calculated from the tissue wet and dry weights. The fluorescence signal in the absorption and desorption baths was quantified using a plate reader (1400 Wallace Victor, PerkinElmer, MA); the solute content inside the cartilage disk was determined from the difference between the fluorescence reading of the absorption/desorption baths before and after incubation. […] The solute uptake ratio was calculated as the concentration of the FITC-solute in the cartilage (per intra-tissue water weight) normalized to the concentration of FITC-solute in the equilibration bath.

**Q.** What does the source list for “Avidin: positively charged globular glycosylated tetrameric protein, pI 10.5, 66 kDa, diameter ~7 nm (Invitrogen); SEQ ID NO 1”?
**A.** equilibrium partition coefficient K [1]: ~6; Kd ([1]; read-out: equilibrium dissociation constant KEQ): 150 µM and ~150 µM; zeta potential [2]: 10 mV; percent of absorbed solute diffused out of the cartilage ([3]; 10×PBS, within 24 h): ~69%; mean uptake ratio ([3]; 40% GAG-depleted cartilage (chondroitinase-ABC)): 24; higher uptake of Avidin compared to NeutrAvidin ([3]; normal cartilage): greater than 400 times; mean uptake ratio ([3]; normal cartilage): ~183

— patent US9289506B2, “Surface binding of nanoparticle based drug delivery to tissue” (Massachusetts Institute of Technology, priority 2013, dated 2016)
